Key:
[1] = target: host-recognition protein P5 of bacteriophage PR772 (bacteriophage PR772); assay: cryo-EM structure; localized asymmetric (C1) reconstruction of the five-fold vertex after capsid signal subtraction (about 10 Å for the class with P2; 4.41 Å for the penton) and focused classification of the penton base (4.25 Å); models fitted as rigid bodies; purified wild-type virions
[2] = target: penton protein P31 of bacteriophage PR772 (bacteriophage PR772); assay: as above
[3] = target: major capsid protein P3 of bacteriophage PR772 (bacteriophage PR772); assay: cryo-EM structure; icosahedrally averaged (I4) single-particle reconstruction of purified wild-type PR772 virions; overall 2.75 Å, capsid 2.3 Å; de-novo model of the asymmetric unit; difference density map of the vertex region
[4] = target: capsid associated protein P30 of bacteriophage PR772 (bacteriophage PR772); assay: as above

host-recognition protein P5 of bacteriophage PR772 (natural protein)
stoichiometry N [1]: 3 | stoichiometry N (copies of P5 in the penton base) [2]: 3 | stoichiometry N (copies of P31 in the penton base) [2]: 2

receptor-binding protein P2 of bacteriophage PR772 (natural protein)
percent of vertex sub-particles with a density representing P2 [1]: 16%

major capsid protein P3 of bacteriophage PR772 (natural protein)
stoichiometry N [3]: 3

capsid associated protein P30 of bacteriophage PR772 (natural protein)
stoichiometry N [4]: 2
